These results are taken from patent US20220380463A1.

The assay addresses cynomolgus CD3εδ Fc heterodimer (Cy CD3ε Fc / CD3δ Fc-HIS) (cynomolgus) (UniProt Q95LI8). The experiment in a line: BLI (ForteBio), pH 6.0.

Residue numbers refer to the chain shown, from its start.

Chain of cynomolgus CD3εδ Fc heterodimer (Cy CD3ε Fc / CD3δ Fc-HIS) (cynomolgus) (chain, as listed by the source mutant, chain 1 of 2): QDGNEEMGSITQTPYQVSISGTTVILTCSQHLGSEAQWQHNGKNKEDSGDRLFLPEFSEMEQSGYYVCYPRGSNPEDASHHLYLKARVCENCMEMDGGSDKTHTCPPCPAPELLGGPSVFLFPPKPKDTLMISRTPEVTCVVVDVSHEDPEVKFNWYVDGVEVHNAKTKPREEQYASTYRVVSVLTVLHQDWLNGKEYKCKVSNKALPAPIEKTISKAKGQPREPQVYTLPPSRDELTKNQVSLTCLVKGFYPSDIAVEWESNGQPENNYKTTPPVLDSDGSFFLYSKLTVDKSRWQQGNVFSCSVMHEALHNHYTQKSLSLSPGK
Chain of cynomolgus CD3εδ Fc heterodimer (Cy CD3ε Fc / CD3δ Fc-HIS) (cynomolgus) (Q95LI8 22-100, stated change not applied, chain 2 of 2): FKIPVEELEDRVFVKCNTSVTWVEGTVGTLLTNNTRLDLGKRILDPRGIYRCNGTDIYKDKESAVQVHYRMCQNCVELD

B1: SAD10320_P02_E05 (antibody, V domains shown)
VH: QVQLVQSGAEVKKPGASVKVSCKASGFNIKDYYMHWVRQAPGQRLEWMGWIDLENANTIYDAKFQGRVTITRDTSASTAYMELSSLRSEDTAVYYCARDMHGRYFYDVWGQGTLVTVSS
VL: DIVMTQSPDSLAVSLGERATINCKSSQSLLNARTGKNYLAWYQQKPGQPPKLLIYWASTRESGVPDRFSGSGSGTDFTLTISSLQAEDVAVYYCKQSEHRRTFGGGTKVEIK
Turning to B1, the Kd is 14.5 nM and the kon came out at 219000 M⁻¹ s⁻¹.

B2: SAD10320_P03_D08 (antibody, V domains shown)
VH: B1 VH with M100A, H101Y, R103H, Y104Q
VL: B1 VL with E98Y, R100T
In turn, B2 showed a Kd of 7.76 nM and a kon of 249000 M⁻¹ s⁻¹.

B3: SAD10320_P04_E12 (antibody, V domains shown)
VH: B1 VH with M100A, H101Y, R103H, Y104T
VL: B1 VL with E98Y, R100V
On to B3, for which the equilibrium dissociation constant (Kd) turned out to be 79.8 nM and the kon came out at 136000 M⁻¹ s⁻¹.

B4: SAD10320_P03_F09 (antibody, V domains shown)
VH: B1 VH with M100A, H101Y, R103H, Y104D
VL: B1 VL with E98Y
Turning to B4, the Kd is 37 nM and the on-rate (kon) amounted to 195000 M⁻¹ s⁻¹.

B5: SAD10320_P02_H06 (antibody, V domains shown)
VH: B1 VH with M100A, H101Y, Y104N, F105H
VL: B1 VL with N37S, E98Y, H99V, R100H
On to B5, for which the Kd stood at 10.5 nM and the kon stood at 268000 M⁻¹ s⁻¹.

B6: SAD10320_P03_C09 (antibody, V domains shown)
VH: B1 VH with K23E, M100A, H101Y, R103H, Y104V
VL: B1 VL with E98Y, H99L, R100H
In turn, B6 yielded a Kd of 31.6 nM and a kon of 161000 M⁻¹ s⁻¹.

B7: SAD10320_P03_F08 (antibody, V domains shown)
VH: B1 VH with M100A, H101Y, R103H, Y104D
VL: B1 VL with T34P, E98Y, H99S
B7: the Kd was 15 nM and the kon came out at 179000 M⁻¹ s⁻¹.

B8: SAD10320_P04_G11 (antibody, V domains shown)
VH: B1 VH with M100A, H101Y, G102R, R103H, Y104E
VL: B1 VL with E98Y, H99Y, R100H
Molecule B8 showed a Kd of 15.7 nM and a kon of 176000 M⁻¹ s⁻¹.

B9: SAD10320_P03_E07 (antibody, V domains shown)
VH: B1 VH with M100A, H101V, G102H
VL: B1 VL with E98Y, R100P
In the case of B9, the Kd was 33.8 nM and the kon worked out at 207000 M⁻¹ s⁻¹.

B10: SAD10320_P03_C08 (antibody, V domains shown)
VH: B1 VH with K23E, R44T, E46A, M100A, H101Y, R103H, Y104V
VL: B1 VL with E98Y, H99L, R100H
Regarding B10, the dissociation constant Kd amounted to 323 nM and the kon is 46900 M⁻¹ s⁻¹.

B11: SAD10320_P04_F10 (antibody, V domains shown)
VH: B1 VH with R44T, E46D, M100A, H101Y, Y104N, F105H
VL: B1 VL with T34P, E98Y, H99L, R100H
Molecule B11 registered a Kd of 8.51 nM and a kon of 281000 M⁻¹ s⁻¹.

B12: SAD10320_P02_A06 (antibody, V domains shown)
VH: B1 VH with E46P, M100A, G102E
VL: B1 VL with E98H, H99L
B12 showed a Kd of 11.6 nM and a kon of 228000 M⁻¹ s⁻¹.

B13: SAD10320_P04_D11 (antibody, V domains shown)
VH: B1 VH with E46Q, M100A, H101Y, R103H, Y104V
VL: B1 VL with E98Y, R100H
Molecule B13 returned a Kd of 16.9 nM and a kon of 200000 M⁻¹ s⁻¹.

B14: SAD10320_P04_A11 (antibody, V domains shown)
VH: B1 VH with E46Q, M100A, H101R, G102H
VL: B1 VL with E98Y, H99S, R100H, R101G
The molecule B14 gave a Kd of 29.4 nM and a kon of 252000 M⁻¹ s⁻¹.

B15: SAD10320_P02_D06 (antibody, V domains shown)
VH: B1 VH with L45P, E46A, M100A, H101Y, R103H, Y104G
VL: B1 VL with E98Y, H99G, R100H
For the molecule B15, the Kd was 23.4 nM and the on-rate (kon) was found to be 265000 M⁻¹ s⁻¹.

B16: SAD10320_P04_A12 (antibody, V domains shown)
VH: B1 VH with M100A, H101Y, R103H, Y104V
VL: B1 VL with E98Y, R100H
Turning to B16, the Kd came to 240 nM and the kon was 69700 M⁻¹ s⁻¹.

B17: SAD10320_P03_H08 (antibody, V domains shown)
VH: B1 VH with M100A, H101Y, R103H, Y104V
VL: B1 VL with R33S, G35A, E98Y, H99R, R100H
As for B17, the Kd was determined as 181 nM and the association rate constant (kon) amounted to 82700 M⁻¹ s⁻¹.

B18: SAD10320_P04_F11 (antibody, V domains shown)
VH: B1 VH with M100A, H101Y, R103H, Y104E
VL: B1 VL with S97G, E98H, H99S
For B18, the Kd is 9.55 nM and the kon was determined as 201000 M⁻¹ s⁻¹.

B19: SAD10320_P04_E11 (antibody, V domains shown)
VH: B1 VH with M100A, H101Y, R103H, Y104D
VL: B1 VL with E98Y, H99G, R100H
With B19, the Kd came out at 20.1 nM and the kon worked out at 148000 M⁻¹ s⁻¹.

B20: SAD10320_P04_D12 (antibody, V domains shown)
VH: B1 VH with M100A, H101Y, R103H, Y104D
VL: B1 VL with E98Y, H99S, R100H
Consider B20, for which the Kd was found to be 13.9 nM and the kon worked out at 186000 M⁻¹ s⁻¹.

B21: SAD10320_P03_A09 (antibody, V domains shown)
VH: B1 VH with M100A, H101Y, R103H, Y104V
VL: B1 VL with E98S
Molecule B21 returned a Kd of 14.6 nM and a kon of 199000 M⁻¹ s⁻¹.

B22: SAD10320_P04_C10 (antibody, V domains shown)
VH: B1 VH with M100A, H101Y, R103H, Y104A
VL: B1 VL with E98Y, R100Q
Molecule B22 came in with a Kd of 168 nM and a kon of 111000 M⁻¹ s⁻¹.
